Assay results from PMC11100808.

Molecular target: biotinylated human CK1δ catalytic domain (CK1δ ΔC) (human) (UniProt P48730)
Assay: BLI

LIN-42 CK1BD + Tail (from UniProt Q65ZG8 402-597) (domain or fragment)
Kd: 209 nM
